# Assay results published in patent US20110027907A1 (AUCKLAND UNISERVICE, published 2011).
# B1: recombinant IgA Fc (Cys242 to Pro455 of human IgA1) (other)
# chain: CHPRLSLHRPALEDLLLGSEANLTCTLTGLRDASGVTFTWTPSSGKSAVQGPPERDLCGCYSVSSVLPGCAEPWNHGKTFTCTAAYPESKTPLTATLSKSGNTFRPEVHLLPPPSEELALNELVTLTCLARGFSPKDVLVRWLQGSQELPREKYLTWASRQEPSQGTTTFAVTSILRVAAEDWKKGDTFSCMVGHEALPLAFTQKTIDRLAGKP
# notes: range 242-455
# Molecular target: T1, recombinant SSL7 (GL1 S. aureus Greenlane), wild type (Staphylococcus aureus)
# T1 construct: also called rSSL7; SET1 GL1
# Test: co-crystal structure
binder,measurement,value
B1,binding result,binds
